{
  "source": "the supplement of paper PMC7125110",
  "parents": {"B1": {"name": "glmS ribozyme (parent)", "chain": "AUAAAAGCGCCAGAACUACAGAAAUGUAGUUGACGAGGAGGAGGUUUAUCGAAUUUUCGGCGGAUGCCUCCAAA"}},
  "note": "± gives the standard error. This sample holds only a part of the variants without activity.",
  "data": [
    {"variants_of": "B1", "assay": "self-cleavage kobs at 2500 uM GlcN6P; higher = faster cleavage; RNA array", "conditions": "with glucosamine-6-phosphate", "method_in_brief": "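Over ~14 h at 37 °C, tiles were imaged as glucosamine-6-phosphate (40 μM to 10 mM) in HEPES/KCl/Mg(OAc)2 buffer flowed across sequenced MiSeq chips. The chips carried barcoded ribozyme variants transcribed in situ by E. coli RNA polymerase and tracked with a hybridised Cy3 probe. After normalisation to baseline and to non-cleaving reference variants, one- or two-exponential decay fits of per-tile medians gave kobs. kcat and KM followed from weighted Michaelis–Menten fits across concentrations.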", "units": {"self-cleavage kobs at 2500 uM GlcN6P": "s⁻¹"}, "values": [
      {"variant": "C16A C34A C70U", "self-cleavage kobs at 2500 uM GlcN6P": "< 1e-05"},
      {"variant": "A14G G41A G62U", "self-cleavage kobs at 2500 uM GlcN6P": "< 1e-05"},
      {"variant": "U30C G44U U45G U69G", "self-cleavage kobs at 2500 uM GlcN6P": "< 1e-05"},
      {"variant": "A14C A39C U65G", "self-cleavage kobs at 2500 uM GlcN6P": "< 1e-05"},
      {"variant": "U31G U56C G62A", "self-cleavage kobs at 2500 uM GlcN6P": "< 1e-05"},
      {"variant": "G29U U31A U69G C70A", "self-cleavage kobs at 2500 uM GlcN6P": "8.63e-05 ± 2.8e-05"},
      {"variant": "A15C A64C C68U", "self-cleavage kobs at 2500 uM GlcN6P": "< 1e-05"},
      {"variant": "A14U C16U U47G C58U G60A U69G", "self-cleavage kobs at 2500 uM GlcN6P": "0.000102 ± 2.6e-05"},
      {"variant": "A15G G37U C61A C68A C70G", "self-cleavage kobs at 2500 uM GlcN6P": "4.28e-05 ± 2e-05"},
      {"variant": "U30A C58A C67U", "self-cleavage kobs at 2500 uM GlcN6P": "4.25e-05 ± 1.9e-05"},
      {"variant": "A14G A39U C71G", "self-cleavage kobs at 2500 uM GlcN6P": "0.00129 ± 0.00041"},
      {"variant": "A14U G35C U65G G66U U69G", "self-cleavage kobs at 2500 uM GlcN6P": "< 1e-05"},
      {"variant": "A15C A33C C61U G66A", "self-cleavage kobs at 2500 uM GlcN6P": "< 1e-05"},
      {"variant": "A15C C34G U57A", "self-cleavage kobs at 2500 uM GlcN6P": "< 1e-05"},
      {"variant": "C16U G29C U55A", "self-cleavage kobs at 2500 uM GlcN6P": "0.00365 ± 0.00064"},
      {"variant": "A14C C16A G63A", "self-cleavage kobs at 2500 uM GlcN6P": "< 1e-05"},
      {"variant": "G26U G41C", "self-cleavage kobs at 2500 uM GlcN6P": "0.000123 ± 3.4e-05"},
      {"variant": "U30C C61U U65A", "self-cleavage kobs at 2500 uM GlcN6P": "< 1e-05"},
      {"variant": "A14C U56C C67U", "self-cleavage kobs at 2500 uM GlcN6P": "< 1e-05"},
      {"variant": "G29U C58G C71A", "self-cleavage kobs at 2500 uM GlcN6P": "0.000118 ± 3.2e-05"},
      {"variant": "A15C A64G C68A", "self-cleavage kobs at 2500 uM GlcN6P": "< 1e-05"},
      {"variant": "C16G G40U G41U", "self-cleavage kobs at 2500 uM GlcN6P": "< 1e-05"},
      {"variant": "C19A C34U U45A A48U", "self-cleavage kobs at 2500 uM GlcN6P": "< 1e-05"},
      {"variant": "U30C G35C U49A", "self-cleavage kobs at 2500 uM GlcN6P": "< 1e-05"},
      {"variant": "G32A A39U U56A", "self-cleavage kobs at 2500 uM GlcN6P": "5.98e-05 ± 1.5e-05"},
      {"variant": "U30G U49G U54A", "self-cleavage kobs at 2500 uM GlcN6P": "4.83e-05 ± 2.3e-05"},
      {"variant": "G29C G40C U54A", "self-cleavage kobs at 2500 uM GlcN6P": "6.31e-05 ± 2.5e-05"},
      {"variant": "C16U U57A G59C", "self-cleavage kobs at 2500 uM GlcN6P": "< 1e-05"},
      {"variant": "A14G A15U A48U", "self-cleavage kobs at 2500 uM GlcN6P": "0.000128 ± 4.1e-05"},
      {"variant": "A15G U30G A64G", "self-cleavage kobs at 2500 uM GlcN6P": "0.00272 ± 0.00073"},
      {"variant": "U30G G32U G35A A53G", "self-cleavage kobs at 2500 uM GlcN6P": "< 1e-05"},
      {"variant": "G29C U30G A39G", "self-cleavage kobs at 2500 uM GlcN6P": "0.00224 ± 0.00066"},
      {"variant": "G32A G35C G44C U56G", "self-cleavage kobs at 2500 uM GlcN6P": "< 1e-05"},
      {"variant": "U30A G32C A39G", "self-cleavage kobs at 2500 uM GlcN6P": "9.38e-05 ± 3.4e-05"},
      {"variant": "U30A C50A C68U", "self-cleavage kobs at 2500 uM GlcN6P": "4.96e-05 ± 2.3e-05"},
      {"variant": "G29U G32C A53G C70U", "self-cleavage kobs at 2500 uM GlcN6P": "6e-05 ± 1.4e-05"},
      {"variant": "G29U G35A A42U", "self-cleavage kobs at 2500 uM GlcN6P": "< 1e-05"},
      {"variant": "A15C C16G U31A A53G C58A", "self-cleavage kobs at 2500 uM GlcN6P": "4.06e-05 ± 1.5e-05"},
      {"variant": "G29C A64G G66U", "self-cleavage kobs at 2500 uM GlcN6P": "4.43e-05 ± 1.8e-05"},
      {"variant": "A15U G44A G51A A53U", "self-cleavage kobs at 2500 uM GlcN6P": "< 1e-05"},
      {"variant": "G13U U31C G44U A64U", "self-cleavage kobs at 2500 uM GlcN6P": "< 1e-05"},
      {"variant": "U31C A42U U56C G66C", "self-cleavage kobs at 2500 uM GlcN6P": "< 1e-05"},
      {"variant": "C16A A36C A42C U55C U56A U57G C58U C71G", "self-cleavage kobs at 2500 uM GlcN6P": "< 1e-05"},
      {"variant": "G13C G41A U45A C70U", "self-cleavage kobs at 2500 uM GlcN6P": "8.8e-05 ± 2e-05"}
    ]}
  ]
}
